Among the data in US20230226096A1 (Orna Therapeutics, Inc., priority 2020, published 2023) are Expression values, retold here.

First the molecules themselves.
B1: Parabovirus B (nucleic acid)
DNA: AACCCATAATCCATTGTCCATCAATGTTTTATGGGGGGGACCCTTTCTCCCCTCCCCCTCCAAATACCTTTTACCCCTCTGTAACCAAGAGTGTGCAAAATCTATTTACTAGCCCAGAATTGCGGCTTCTGGGGAGGTTTATTCCTCATGCCTAACAAGATGTTACGCAAACTCCGGGCTACGGCCCTGGGCTTTTGCCCTAAAGATTTAGAAGTTTACACTATCGTCCAACAGGAGGACAACAAACCAGTTGTTCTAAGGACAAGCACTTCTGTTTCCCCGGTGAGACTGGATAGACTGTACCCACGGTTGAAACTGGTTGATCCGTTACCCGACTCACTACTTCGAGAAGATTAGTAGGAAACTGTGAAACTGATTCCATTGATCCGGATACTTTCCCCGTATCCAGAAACTACTGATGAGGGTTGACTTCCCGACTACGGCGACGTAGTGTCATCCCTGCGCTGGCAGTAGGCCTCTTTGAGGATGGAAGATGTGGATCGGTAACCGAAGGTCCTATTGAGCTAGTGTTTATACCTCCGGCCTCCTGAATGCGGCTAATCCTAACCCATGATCTAGTGCTCACAAACCAGTGAGTAGCTAGTCGTAACGCGTAAGTCGTGGGCGGAACCGACTACTTTGGAGTGACCGTGTTTCCTATTTTACTTTTGTTTG
modifications: Parabovirus B
B2: Rabovirus A NYC-B10 (nucleic acid)
DNA: CCGACCCCACTGGTCGAAGGCCACTTGGCAATAAGACTGGTGGAACAAGGTCGCCTGTAGTTGATTGGAACCTTCTTTCTAATGACTTATGTCAGCGGTGCTACTCACACCGTAACTCTCCTACCCTATCCCCACGCTTGTGGAACTAGGAGGGGATGAGTGATTCAAGTAAGTACTGTCAGAATGGTGAAAATAATCTGATTCTGAAACGCTATGGATCCATCGAAAGATGGGGCTACACGCCTGCGGAACAACACATGGTAACATGTGCCCCAGGGGCCGAAAGCCACGGTGATAGGATCACCCGTGTAGTTTGAGATCATATCAATGTTCATAGTCTAGTAAGATGATTTGAAATCTAACTGGTCTGATGGCTAACTGCTTGTCTTATTGCGGCCTAAGGATGTCCTGCAGGTACCTTTAGAGAACCTTAAGAGACTATTGATCTGAGCAGGAGCCAAGGTGGTCTTTCCCAGCCTTGGTTAAAAAGCGTCTAAGCCGCGGCAGGGGGCGGGAGGCCCCCTTTCCTCCCAAACTATAATATAGATTGT
modifications: Rabovirus A
B3: Parabovirus C (nucleic acid)
DNA: GATGTATCCCCATCCCCCAGTGTGTATGCCATACTGCATAGCTCGCCTATGCCCTATGGATTCACAACCCTTTCATATACCCTCCCTACCCAACCCCGTAACCACATGCTTTACTCCGCTTGGGGTTTTGCGGCCCCATGTTGTGACGAAATGGCTACGCAATCAATGCGGCTAATGGGGCCTGCCGCTTTTAAGTGGCCCCAGTTAGAAGTTTATGCACACCCGCCCATTAGGAGGCCACCAGCCAGGTGGTCAGAGGGCAAGCACTTCTGTTTCCCCGGTGAAGTTTGATAAGCTGTGCCCACGGCTGAAGCAGACAGATCCGTTACCCGCCTCACTACTACGAGACGGCTAGTAGTGTGTAATATCCGAATTTCATTGATCCGGGTGTTCCCCCCACCCAGAAACGTGTGATGAGGAGCGGCACCCCTCCTATGGCAACATAGGGCCTCTCCTGCGCTGGCACACGGGCTCTATGAGCATGAAATCAGGAGAAAGTCACACGAAGACCTTATTGTGCTAGTGTTGATTCCTCCGCCCCCCTGAATGCGGCTAATCCCAACTCCGGAGCGCCCGCTGGCAAACCCGCCAGAAGAGCGTCGTAATGCGTAAGTCTGGAGCGGAACCGACTACTTTGGGTGTGGCGTGTTTCCTTTATTTCCTTTGTATTTGTAT
modifications: Parabovirus C
B4: Simian Sapelovirus 2 (nucleic acid, listed as Sapelovirus sp.)
DNA: TTTTAACTTGTTATGACATTCAAGGAAAAAATGTCTTTTTCATTATGGGACTGACCTGTTTATGAACATGAGCAGCGGCACTGCTCCACGGGCTATCCGTGTAAGAAATATTGATTATTCTTATGGATCATGATTTCAGGGTTGGCCGCCCAGTCTAAAAGGCAATTGTGGTAAGCTATGTAAGTAGTTGGCTGTTGAAAGGAGCCAAGTACATCCTAGGTCTACGCTGTGCGGGCCGAAGTAAGACTTGGAACAACTCTGAGTAGGCAGTTTTTCTCTTTAGCCCAACACGACCGCATACTGAAGAGCTAGAGGCACTTTGGGGCAAAGGTAAAAGCATTGCTTAGACCGAATGTTCAATGAGACCTTGACGAGTGCTGTCACAGTGTCCCCTGATGGCAGTATGGCGCATGCTCTTGGCATTACCCATATGTGTATCTATAGGGGGGGGGCCCCCTATACTTAGTCTAGTGCTACCTGACAGGGCCGCGGCTGGTCGTCGGTGTGTGGTATAACCAGTAGTAATCCCCCATGGATTGCTTTAACTCCCCCTCCTCCCTCAACAAAACTTTCTCTAAG
B5: Rabovirus C (nucleic acid)
DNA: CCGGGTATAACCCGGAGTTTTGGGGCAGGTCCAAGCCCCACATAGGAACATACGATCCACGGATCGTGTGTTCTTTTATGCTTTCTAACCTTACCCTTTGTAACCATTACGCTTTACGCCGCATGGTGTTTGGCGGCACCATGACGTGGACAAGAGGTTACGCCATTACGATATGTACCCTCCCCTTTTGGGGAGAGACCGACCAATTATGGTACAGTATCCAACTGTATTGTGGTCAAGTACTTCTGTTTCCCCGGTGATGCGGGATAGGCTGTACCCACGGCCAAAACCTGCTGATCCGTTACCCGACTCACATCTACGAGGAGGCTAGTAAAAGGCATGAAGTTCAAGAGTATGATCCAACCAGATCCCCACTGGTAAACTAGTGATGAGGGTTCCCGTTCCGAACATGGCAACATGTGGGTTCCCTGCGTTGGCACTAGGCCCCTTCCGAGGGGTGCTCTGAAGATGGATTGTTGATGAAGACCAATTTGTGCATGTGTTTATCCTCCGGCCCTCTGA
modifications: Rabovirus C
B6: Porcine Sapelovirus A2 (nucleic acid, listed as Sapelovirus sp.)
DNA: TTGAAATGGGTGTGGGGTACATGCGTATTACGGTACGCATATATTCCACACTCATTTCCCCCCCTCCACCCTTAAGGTGGTTGTATCCCCATACCTTACCCTCCCTTCTAAAACAGATGGACAAATGGATTTGAACTTATGGCAAGTGAATATGGTATGACTTTGGATACACTTTAACGGCAGTAGCGTGGCGAGCTATGGAAAAATCGCAATTGTCGATAGCCATGTTAGTGACGCGCTTCGGCGTGCTCCTTTGGTGATTCGGCGACTGGTTACAGGAGAGTAGGCAGTGAGCTATGGGCAAACCTCTACAGTATTACTTAGAGGGAATGTGCAATTGAGACTTGACGAGCGTCTCTTAGAGATGTGGCGCATGCTCTTGGCATTACCATAGTGAGCTTCCAGGTTGGGAAACCTGGACTGGGCCTATACTACCTGATAGGGTCGCGGCTGGCCGCCTGTAACTAGTATAGTCAGTTGAAACCCCCC
B7: Simian Sapelovirus 1 (nucleic acid, listed as Sapelovirus sp.)
DNA: CCAAGGATCTGTTGCATAGGCGTTGTATCCCCTAACCTTTTACCTACCCATCCCAATAGGACTGGTATTTCGGTTTTGATTGAGTAATGGATACTGATTCTATACCTGTTACCCATTCAGGGGAAAAATGGAGTTTCTTTCATGGATCTGACTTGATATGACCAAGAGTCAACACTTTGCGTGTTGGCCGTATGGAATGCTTTAAGGTTTATTCTTTGGATTATGACTTCAGGGTTGGCCGCCCAGGATAAAAGGCAATTGTGGTAAGTGATGTTAGTCATTGGTGGTTGAAACCTGCCTAAGACGTCCTAGGTCTACGCTGTGCGGGCCGAAGTAAGCTTAGGAATAACAGGGAGTATGCCATTTTCTGCTTTCACCCAACACGACCGTACACGAAAGAGCTAGAGGCACTTTGGGGCAAAGGGAAAAGCTTTGCTTAGCCCGAATGTTCATTTGAGTCCTTGACGAATGCGTCCCGTCTGTCCCGACGGTGAGGCGTATGGCGCATGCTCATGGCATTACCCAATGGTGTATCTGTGAGGGGGGGGCTCCTCACACTTAGTCTAGTGCTACCTGACAGGGCCGCGGCTGGTCGTTTGTGTATGGTATAACCAGTAGTAATCCCCCATGGATTGCTTTAACTTCCCCTCCTCCCTTACCAAGACATTCTCTAAG
B8: Beihai Conger Picornavirus (nucleic acid)
DNA: GGGACAACCCCACAGCTGGTACAACCATTGTGGGTTGGTCTCCACCCTTTTTCAACCGTGGCAACTTCGGTTAAAGTTGCAAATCCCCCCTCTCCCTATTCCACCTCCCTTACTTTCACTCCCCATATATGGTCCCAGATTTTATTCTACCTCTTTATATTTTTATTTAGTACAGTGGTGGTGAATTACTCCCAGCATAAACTTTGCTGGATCAGTGTTCATCAAGCATACTAATTACTAATGTACTGAGCTATACTATTATCTGGCATCTCACCTGGATAACCGGTGTGACCATATTTCCTAGGTTGCCTCCCTATGTATTTTGTAGCACCTGTGCATCTGCACGTTGGGGCGACAAATTGTAGGTTTCCTGGCACGGGTAAGAATTGTGGAAAGCTAGTATGCAGTTAATGCAAGGGCGCGTTTTTCGCTACCCCGACACTGCTAAAGTTTTTGGGAGGGGTCCCTTAAACATTTCTAGTATTGAGTGATAGCTTTGCGGCAGGTCACCACAACCTTACTATAAATAAACCTGTTGAATCTCAC
B9: Cadicivirus B (nucleic acid)
DNA: CACCAACCCTTGACCTGTAATGTCAGTGGACAGAGTGCTCCTCTGTTCCCGGTTACCGTGTTCCAGGACACGATTGTAATCCTGCGCCTCACCAGCGCTGCGTGCACGTCTGCATAAGGAAACGTGCCTTCCCCATGTCTCTATCAATTCTTTGGTGAGTGACCGCCCTAGTTGCTCATCCTATGGGATTCTTCTCTCATGGGTTCTTTGTGGCATGCGAATGTCACCTTAATTGGAGGTCTTTAATTAGATATCCTTTCTTCATCTTTGATATGAGTGTCGGAATTTGATTCCTAGTCTCTGCAAAACAACCCCACTTGATGAATTCAACTTTTCAACCGCACAAACATAATCAGGTTTTTAAATTGAATGTTTCTAAATTCTAAATTTAGTTTATTTAAGTAGTTTGCCATCTTGACTCGATGTAAAATTGTCATACAAGTCTTCTTTTCTTTTCTTTACACTTTGAAGTTTGCACTTAGCAGTCGTTCTGCACAGCTTTCGAGTTTTGTTTGATCGACATCGCAACTTCCACCCACCTCTCTTTTTCTAGTGTTGAATGCGGCTAATCCTAACCCGAGAGCAATAAACCCAGGTTTATTGTCGTAACGCGCAAGTCTTGGACGGAACCGACTATACACACACCTCTTTACCCTTTAGTACACCCTTGGTACG
modifications: Cadicivirus B

The data set concerns HEK293 cells. The class given is cell-based, human. The note with it: luminescence from secreted Gluc in supernatant 24 hours after transfection of HEK293 cells; circular RNA encoding Gluc with the named IRES (UTR truncated to 675 nt).
With B1, the Expression is reported as 7.85E+06. With B2 the figure was 1.24E+06; with B3, 1.83E+07; with B4, 4.24E+07. The molecule B5 gave an Expression of 2.49E+06. As to B6, the Expression stood at 4.34E+06. On to B7, for which the Expression was found to be 6.55E+07. For the molecule B8, the Expression came out at 1.15E+06. With B9 the figure was 2.10E+05.
